Assay results: paper PMC13226697, “Stress-induced OMA1-mediated cleavage of AIFM1 suppresses cell growth by controlling mitochondrial OXPHOS activity” (The EMBO Journal, 2026)

Target: the molecule itself
Test: native gel or EMSA; CN-PAGE of mitochondria solubilised in 0.5% digitonin, with or without FCCP, immunoblot with AIFM1 antibodies

B1: AIFM1^TCS/TEV, soluble product of AIFM1^TCS cleaved by IMS-TEV protease (domain or fragment, murine)
chain: GVMGLGLSPEEKQRRAIASATEGGSVPQIRAPSHVPFLLIGGGTAAFAAARSIRARDPGARVLIVSEDPELPYMRPPLSKELWFSDDPNVTKTLQFRQWNGKERSIYFQPPSFYVSAQDLPNIENGGVAVLTGKKVVHLDVRGNMVKLNDGSQITFEKCLIATGGTPRSLSAIDRAGAEVKSRTTLFRKIGDFRALEKISREVKSITVIGGGFLGSELACALGRKSQASGIEVIQLFPEKGNMGKILPQYLSNWTMEKVKREGVKVMPNAIVQSVGVSGGRLLIKLKDGRKVETDHIVTAVGLEPNVELAKTGGLEIDSDFGGFRVNAELQARSNIWVAGDAACFYDIKLGRRRVEHHDHAVVSGRLAGENMTGAAKPYWHQSMFWSDLGPDVGYEAIGLVDSSLPTVGVFAKATAQDNPKSATEQSGTGIRSESETESEASEITIPPSAPAVPQVPVEGEDYGKGVIFYLRDKVVVGIVLWNVFNRMPIARKIIKDGEQHEDLNEVAKLFNIHED
notes: additional glycine residue at the N-terminus, left from the TEV site ENLYFQG after TEV processing; Murine AIFM1 from V98, the residue after the replaced R97, to the end of A.A.1-612; Expected molecular weight ~60 kDa including the Myc tag; The dimer is an estimate from CN-PAGE; also called membrane-dislocated AIFM1 variant; soluble AIFM1^TCS/TEV; not shown: 3x Myc, C-terminal, kept
stoichiometry N: 2
